From patent US8691772B2, “HSP60, HSP60 peptides and T cell vaccines for immunomodulation” (Yeda Research and Development Co. Ltd., priority 2005, dated 2014)

Legend:
BALB/c lymph node-cells = test: T-cell migration assay towards SDF-1α, mouse lymph node cells; format: cell-based, BALB/c mice; details: in vitro, HSP60 1 hr
Text: Mice and mouse T cells. Female C57BL/6J were obtained from Harlan Olac (Bicester, U.K.). TLR2-knockout mice on the C57BL/6J background were kindly provided by Dr. S. Akira (Osaka University, Osaka, Japan). CD3^+ T cells were isolated by negative selection with anti-mouse antibody cocktail (Pan T cell kit; Miltenyi Biotec; CITY Germany). The labeled cells were then passed through separation columns (MidiMACS columns, Miltenyi Biotec). The purified cells (>97% T cells) were untreated or treated with HSP60 as described. Similarly, T cells were purified from the lymph nodes of BALB/c mice (females, 1.5 months of age).
T-cell migration assay. Migration of ^51[Cr]-labeled human and mouse T cells through FN or endothelial cells to recombinant human SDF-1α was examined in 48-well Transwell chemotaxis apparatus (5-μm pore filters, 6.5-mm diameter; Corning, N.Y.), as previously described (Zanin-Zhorov et al., 2003b). For transendothelial migration assays, 2×10^4 cells of HUVEC were layered on the filters and grown in 10% FCS M199 for 2 days before the performance of each assay. Then, HUVEC were stimulated with TNF-α (50 ng/ml) for 24 hr and washed.

STAT3 = STAT3 phosphorylation in human T cells; format: cell-based
Method: Western blotting of T-cell lysates. T cells were incubated (24 hr, 37° C.) in starvation medium (RPMI medium without serum). Aliquots (5×10^6/sample) of the starved cells were preincubated (for various intervals) with different concentrations of HSP60 prior to exposure to SDF-1α (100 ng/ml, 10 min, 37° C., tissue culture conditions). These reactions were terminated by freezing the plates (−70° C., 10 min). The plates were thawed, and the cells solubilized by incubating (60 min, 4° C.) in lysis buffer [EDTA (0.5 mM), NaCL (150 mM), NaF (10 nM), Tris pH 7.5 (25 mM), Triton X-100 (1%), PMSF (200 pg/ml), and phosphatase inhibitor cocktail (1%)]. Lysates were cleared by centrifugation (30 min, 14×10^3 rpm, 4° C.), and the resulting supernatants analyzed for protein content. Sample buffer was added, the samples were boiled, and equal amounts of proteins were separated by 10% SDS-PAGE and transferred to nitrocellulose membranes. […] Phosphorylation levels of the 3-5 independent experiments were estimated by densitometry, and an average percentage of phosphorylation±SD was calculated as OD of pERK/tERK, or pPyk2/tPyk2, or pAKT/tAKT, pMLC/tMLC, or pSTAT3/tSTAT3×100%.

[1] = tested on: human CD3^+, CD4^+, and CD8^+ T cells; test: Cytokine secretion of anti-CD3-activated CD3+, CD4+, CD8+ and CD25-separated T cells; format: cell-based; details: for secretion of IL-10 and TGF-β: anti-CD3
Text: Purified T-cell populations. […] In a second round of purification, CD4^+ T cells were separated to CD25^− and CD25^+ populations with magnetically coupled mAb against human CD25 (Miltenyi Biotec; Bergisch Gladbach, Germany).

NF-κB = test: Nuclear translocation of NF-κB in T cells; format: cell-based, human
Method: Western blot analysis of T-cell nuclear extracts. Purified T cells (5×10^6) were preincubated with different concentrations of HSP60 for the indicated periods of time (37° C. in a 7% CO2, humidified atmosphere). […] T cells were lysed in 10 mM HEPES, 1.5 mM MgCl2, 1 mM dithiothreitol (DTT), 1 mM PMSF, 0.5% Nonidet P-40. The lysates were incubated on ice for 10 min and centrifuged at 2000 rpm for 10 min at 4° C. The supernatants (cytoplasmic extracts) were transferred and the pellet (nuclei) was suspended in buffer containing 30 mM HEPES, 450 mM NaCl, 25% Glycerol, 0.5 mM EDTA, 6 mM DTT, 12 mM MgCl2 1 mM PMSF, 10 μg/ml leupeptin, 10 μg/ml pepstatin, 1% phosphatase inhibitor cocktail, and the suspension was incubated on ice for 30 min. The lysates were cleared by centrifugation (30 min, 14×10^3 rpm, 4° C.), and the resulting supernatants analyzed for protein content. For NFATp analysis nuclear extracts were prepared with a NE-PER Nuclear and Cytoplasmic Extraction reagent (Pierce, Rockford, Ill.) according to the manufacturer's protocol. Sample buffer was then added and, after boiling, the samples, containing equal amounts of proteins, were separated on 10% SDS-PAGE gel and transferred to nitrocellulose membranes. The membranes were blocked with TBST buffer containing low-fat milk (5%), Tris pH 7.5 (20 mM), NaCl (135 mM) and Tween 20 (0.1%), and probed with the following mAb in the same buffer: anti-NF-κb (diluted 1:1000), anti-total (t) ERK (diluted 1:20,000), anti-NFATp (diluted 1:500), anti T-bet (diluted 1:1000), anti-GATA-3 (diluted 1:1000), anti-Lamin B (diluted 1:1000). Immunoreactive protein bands were visualized using labeled secondary antibodies and the enhanced ECL system.

[2] = CD3+ and CD4+ T cells pre-treated 2 hours, washed, anti-CD3 24 hr

B1: HSP60: recombinant human heat shock protein 60 (StressGen Biotechnologies) (protein)
chain: AKDVKFGADARALMLQGVDLLADAVAVTMGPKGRTVIIEQSWGSPKVTKDGVTVAKSIDLKDKYKNIGAKLVQDVANNTNEEAGDGTTTATVLARSIAKEGFEKISKGANPVEIRRGVMLAVDAVIAELKKQSKPVTTPEEIAQVATISANGDKEIGNIISDAMKKVGRKGVITVKDGKTLNDELEIIEGMKFDRGYISPYFINTSKGQKCEFQDAYVLLSEKKISSIQSIVPALEIANAHRKPLVIIAEDVDGEALSTLVLNRLKVGLQVVAVKAPGFGDNRKNQLKDMAIATGGAVFGEEGLTLNLEDVQPHDLGKVGEVIVTKDDAMLLKGKGDKAQIEKRIQEIIEQLDVTTSEYEKEKLNERLAKLSDGVAVLKVGGTSDVEVNEKKDRVTDALNATRAAVEEGIVLGGGCALLRCIPALDSLTPANEDQKIGIEIIKRTLKIPAMTIAKNAGVEGSLIVEKIMQSSSEVGYDAMAGDFVNMVEKGIIDPTKVVRTALLDAAGVASLLTTAEVVVTEIPKEEKDPGMGAMGGMGGGMGGGMF
- migration of mouse lymph node cells towards SDF-1α (BALB/c lymph node-cells): inhibited migration of mouse lymph node cells towards SDF-1α
- phosphorylation of STAT3 (STAT3): induced phosphorylation of STAT3
- effect on cytokine secretion at doses in the order of 10 ng/ml [1]: did not affect cytokine secretion
- inhibition of IFN-γ and TNF-α secretion in purified CD4+CD25- T cells ([1]; 1 ng/ml, 2 hours, anti-CD3 24 hours): completely prevented the inhibition of IFN-γ and TNF-α secretion by HSP60 treatment
- enhancement of IL-10 secretion [1, 2]: 2-3 fold
- inhibition of anti-CD3-induced IFN-γ secretion [1, 2]: about 50%
- inhibition of anti-CD3-induced TNF-α secretion [1, 2]: about 50%
- secretion of IL-10 and TGF-β ([1]; CD4+CD25- T cells, 1 ng/ml): but not of CD4^+CD25^− T cells
- cytokine secretion without anti-CD3 ([1]; HSP60 alone, 0.01-1000 ng/ml): did not induce cytokine secretion by the T cells
- higher concentrations at which cytokine secretion was again affected significantly ([1]; P<0.05): 0.1-1 μpg/ml
- low concentrations with significant effects on cytokine secretion ([1]; P<0.05): 0.1 to 1.0 ng/mL
- cytokine secretion of CD8+ T cells ([1]; anti-CD3-activated): unresponsive to HSP60 at all concentrations tested
- secretion of IL-10 and TGF-β ([1]; un-separated CD4+ or CD4+CD25+ T cells, 1 ng/ml): significantly up-regulated the secretion of IL-10 and TGF-β
- time at which NF-κB inhibition was apparent (NF-κB; 1 ng/ml): 60 min
- time of peak NF-κB inhibition (NF-κB; 1 ng/ml): 120 to 240 min
- nuclear translocation of NF-κB without anti-CD3 (NF-κB; HSP60 alone): did not affect the nuclear translocation of NF-κB
- concentrations of maximal effects on NF-κB (NF-κB; P<0.01): 1 ng/ml or 1 μg/ml
